Laboratory results from publication PMC11196586, “Molecular insight into interactions between the Taf14, Yng1 and Sas3 subunits of the NuA3 complex” (Nature Communications, 2024).

B4: Taf14ET (extra-terminal domain of Taf14, aa 168-243) (domain or fragment, S. cerevisiae, UniProt P35189 168-243, looked up)
chain: GSASTVKGSVDLEKLAFGLTKLNEDDLVGVVQMVTDNKTPEMNVTNNVEEGEFIIDLYSLPEGLLKSLWDYVKKNT
notes: Taf14, S. cerevisiae, UniProt P35189, ET domain, aa 168-243; Uniformly 15N-labelled for NMR; also called ET domain of Taf14

Assays:
[1] = molecular target: T1, Taf14FL (full length Taf14, aa 1-244) (S. cerevisiae, UniProt P35189 1-244); experiment: other fluorescence titration; tryptophan fluorescence, 25 °C; 1 μM Taf14ET or Taf14FL, increasing peptide; 50 mM Tris-HCl pH 6.8 or 7.5, 150 mM NaCl, 1 mM DTT or 0.2 mM TCEP; excitation 295 nm; apparent Kd, 1:1 stoichiometry; details: both partners purified
T1 construct: Taf14, S. cerevisiae, UniProt P35189, aa 1-244; uniformly 15N-labelled for NMR; also called transcription initiation factor subunit 14
T1 sequence (looked up): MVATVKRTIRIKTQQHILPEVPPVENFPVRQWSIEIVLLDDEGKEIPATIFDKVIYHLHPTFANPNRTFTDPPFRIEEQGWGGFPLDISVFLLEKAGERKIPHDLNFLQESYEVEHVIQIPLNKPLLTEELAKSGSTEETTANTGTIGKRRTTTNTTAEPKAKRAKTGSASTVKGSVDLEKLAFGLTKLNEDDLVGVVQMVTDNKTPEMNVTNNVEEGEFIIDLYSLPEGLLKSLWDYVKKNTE

[2] = molecular target: B4; experiment: as above; details: both partners purified
[3] = molecular target: B4; experiment: NMR titration; 1H,15N HSQC of 0.05-0.2 mM 15N-labeled Taf14 proteins, 298 K, unlabeled peptide or Yng1EBM-PHD added; Tris-HCl or PBS, pH 6.6-7.5; apparent Kd from CSPs, 1:1 stoichiometry; details: both partners purified
[4] = molecular target: T2, Taf14FL (full length Taf14, aa 1-244) (S. cerevisiae), P35189; experiment: mass photometry; Taf14FL with Yng1EBM (1:1 molar ratio), final 100 nM, room temperature, 50 mM Tris pH 7.5, 150 mM NaCl, 1 mM TCEP; details: remark: other sources report otherwise
T2 chain: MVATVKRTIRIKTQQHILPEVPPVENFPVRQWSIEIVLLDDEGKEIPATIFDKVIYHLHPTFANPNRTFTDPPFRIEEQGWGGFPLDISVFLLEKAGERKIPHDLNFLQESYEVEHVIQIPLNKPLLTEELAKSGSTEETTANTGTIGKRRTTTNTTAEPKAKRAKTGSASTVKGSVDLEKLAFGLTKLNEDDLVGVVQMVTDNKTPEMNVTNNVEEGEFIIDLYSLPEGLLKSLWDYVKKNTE

[5] = molecular target: the molecule itself; experiment: crystal structure; Taf14ET co-crystallized with Yng1EBM peptide (molar ratio 1:2.5); 40% PEG 400, 0.1 M Tris pH 8.5, 0.2 M LiSO4; 1.9 Å
[6] = molecular target: T3, Yng1_(EBM-PHD) (aa 100-219 of Yng1) (S. cerevisiae, UniProt Q08465 100-219); experiment: NMR titration; 1H,15N HSQC of 0.05-0.2 mM 15N-labeled Taf14 proteins, 298 K, unlabeled peptide or Yng1EBM-PHD added; Tris-HCl or PBS, pH 6.6-7.5; apparent Kd from CSPs, 1:1 stoichiometry; details: both partners purified
T3 construct: Yng1, S. cerevisiae, UniProt Q08465, EBM coupled to the PHD finger, aa 100-219; source: E. coli Rosetta-2 (DE3) pLysS, purified
T3 sequence (looked up): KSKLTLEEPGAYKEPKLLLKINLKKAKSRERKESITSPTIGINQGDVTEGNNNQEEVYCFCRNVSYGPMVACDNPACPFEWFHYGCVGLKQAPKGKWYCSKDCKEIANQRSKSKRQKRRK

[7] = format: physicochemical, Saccharomyces cerevisiae
Description: The S. cerevisiae Taf14FL (aa 1-244) (UniProt code P35189), Taf14YEATS (aa 1-137), Taf14ET (aa 168-243) and Yng1EBM-PHD (aa 100-219) (UniProt code Q08465) were cloned into pGEX-6P1, pET22b or pCIOX vectors. The F220R, I222R and L224R mutants of Taf14ET were generated using QuikChange II site directed mutagenesis kit (Agilent). Sequences were confirmed by DNA sequencing. All proteins were expressed in Escherichia coli Rosetta-2 (DE3) pLysS cells grown in either Terrific Broth, Luria Broth or in minimal media supplemented with ^15NH4Cl (Sigma). Protein production was induced with 0.3 mM IPTG for 18 h at 16 °C. Bacteria were harvested by centrifugation and lysed by sonication. GST-fusion proteins were purified on glutathione agarose 4B beads (Thermo Fisher Sci). The GST-tag was cleaved with either PreScission or tobacco etch virus (TEV) protease. After cleavage, Taf14FL and Taf14YEATS retained the pGEX-6P1vector-derived residues Gly and Pro. His-fusion proteins were incubated with Ni-NTA resin (ThermoFisher), washed and eluted with a gradient of imidazole. When necessary, removal of the His-tag was completed during an overnight dialysis, while incubating the protein with ULP1 protease. […]
Nuclear magnetic resonance experiments were performed at 298 K on Varian INOVA 900 MHz (for Taf14FL) and 600 MHz (for Taf14ET and Taf14YEATS) spectrometers equipped with cryogenic probes as described. […] NMR data were processed and analyzed using NMRPipe as previously described, with the apparent Kds being determined by a nonlinear least-squares analysis and a 1:1 stoichiometry in GraphPad Prism using the equation:2 Δδ=ΔδmaxL+P+Kd−L+P+Kd^2−4PL/2P Where [L] is the concentration of the peptide, [P] is concentration of the protein, Δδ is the observed chemical shift change, and Δδ max is the normalized chemical shift change at saturation. Normalized chemical shift changes were calculated using the equation δ=ΔδH^2+(ΔδN/5)^2 (3), where Δδ is the change in chemical shift in parts per million (ppm).

B1: Sas3EBM peptide (aa 111-122 of Sas3), Ac-SEELKVRIKYDS-NH2 (peptide)
peptide: Ac-SEELKVRIKYDS-NH2
notes: Sas3 (something about silencing 3), catalytic subunit of the yeast NuA3 complex, aa 111-122; also called Sas3 peptide; source: synthetic peptide (Synpeptide)
[1]
  Kd: 21 µM
[2]
  Kd: 18 µM

B2: L114D Sas3EBM peptide (aa 111-122 of Sas3) (peptide, UniProt P34218 111-122, looked up)
peptide: SEEDKVRIKYDS
notes: Sas3, yeast, aa 111-122 with L114D; The wild-type peptide is Ac-...-NH2; source: peptide
[3]
  Kd: 540 µM

B3: Taf14FL (full length Taf14, aa 1-244), P35189 1-244 (natural protein)
chain: MVATVKRTIRIKTQQHILPEVPPVENFPVRQWSIEIVLLDDEGKEIPATIFDKVIYHLHPTFANPNRTFTDPPFRIEEQGWGGFPLDISVFLLEKAGERKIPHDLNFLQESYEVEHVIQIPLNKPLLTEELAKSGSTEETTANTGTIGKRRTTTNTTAEPKAKRAKTGSASTVKGSVDLEKLAFGLTKLNEDDLVGVVQMVTDNKTPEMNVTNNVEEGEFIIDLYSLPEGLLKSLWDYVKKNTE
[4]
  stoichiometry N: 2

## B4
[5]
  stoichiometry N: 2
[6]
  binding result: binds

B5: L224R Taf14ET: L224R mutant of Taf14ET (aa 168-243 of S. cerevisiae Taf14) (protein, UniProt P35189 168-243, looked up, variant L224R)
chain: GSASTVKGSVDLEKLAFGLTKLNEDDLVGVVQMVTDNKTPEMNVTNNVEEGEFIIDRYSLPEGLLKSLWDYVKKNT
modifications: ET domain (aa 168-243)
[7]
  stability of mutated Taf14ET protein: unstable

B6: I222R Taf14ET: I222R mutant of Taf14ET (aa 168-243 of S. cerevisiae Taf14) (protein, UniProt P35189 168-243, looked up, variant I222R)
chain: GSASTVKGSVDLEKLAFGLTKLNEDDLVGVVQMVTDNKTPEMNVTNNVEEGEFIRDLYSLPEGLLKSLWDYVKKNT
modifications: ET domain (aa 168-243)
[7]
  stability of mutated Taf14ET protein: unstable

B7: F220R Taf14ET: F220R mutant of Taf14ET (aa 168-243 of S. cerevisiae Taf14) (protein, UniProt P35189 168-243, looked up, variant F220R)
chain: GSASTVKGSVDLEKLAFGLTKLNEDDLVGVVQMVTDNKTPEMNVTNNVEEGERIIDLYSLPEGLLKSLWDYVKKNT
modifications: ET domain (aa 168-243)
[7]
  stability of mutated Taf14ET protein: unstable
